Test results published in paper PMC11880807.

T1: EXOG (EXOG-ΔN58) (human, UniProt Q9Y2C4 59-368)
T1 sequence: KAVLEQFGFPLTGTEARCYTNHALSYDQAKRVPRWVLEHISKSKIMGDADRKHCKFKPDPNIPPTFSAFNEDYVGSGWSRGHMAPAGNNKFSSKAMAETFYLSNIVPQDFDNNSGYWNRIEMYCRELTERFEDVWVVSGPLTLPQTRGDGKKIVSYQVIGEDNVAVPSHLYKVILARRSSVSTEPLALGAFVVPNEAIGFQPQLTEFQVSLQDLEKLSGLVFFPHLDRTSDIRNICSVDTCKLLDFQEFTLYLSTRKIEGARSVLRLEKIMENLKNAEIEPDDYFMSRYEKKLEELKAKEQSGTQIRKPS

T2: EXOG-ΔC68 (human, UniProt Q9Y2C4 59-300)
T2 sequence: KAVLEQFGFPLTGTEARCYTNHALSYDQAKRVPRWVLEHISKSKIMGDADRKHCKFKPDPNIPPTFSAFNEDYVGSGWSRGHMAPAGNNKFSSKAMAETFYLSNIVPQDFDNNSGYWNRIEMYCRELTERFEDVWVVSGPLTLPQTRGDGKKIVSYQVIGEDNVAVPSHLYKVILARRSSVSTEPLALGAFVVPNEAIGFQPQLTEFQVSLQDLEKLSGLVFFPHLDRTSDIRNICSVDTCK


Legend:
Assay in all cases: MST
EXOG (EXOG-ΔN58) = target: T1, EXOG (EXOG-ΔN58)
EXOG-ΔC68 [1] = target: T2, EXOG-ΔC68
EXOG-ΔC68 [2] = target: T2, EXOG-ΔC68; remark: listed apart in the source

Binder	Kd (EXOG (EXOG-ΔN58))	binding result (EXOG-ΔC68 [1])	Kd (EXOG-ΔC68 [2])
AGTTCGTTATCGTCGC (ssDNA) [ssDNA 16-mer O10]	25.1 ± 4.5 nM	no binding	
AGUUCGUUAUCGUCGC (ssRNA) [ssRNA 16-mer O11]			155 ± 31.9 nM
